Experimental data as given in the nanobody polyreactivity screen of Harvey et al. (2022).

Assay: yeast display, Sf9 membrane polyspecificity reagent, FACS + sequencing; frameworks hold sequencing errors
Procedure, shortened: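 A synthetic nanobody library was expressed on Saccharomyces cerevisiae BJ5465 by galactose induction for 36–48 hours. The library was stained for 1 hour at 4 °C with 10% biotinylated, detergent-solubilized Sf9 membrane reagent and enriched with streptavidin microbeads before FACS. Low and high (top ~1%) gates were set on anti-HA fluorescence for expression and streptavidin fluorescence for reagent binding, and each polyreactivity label reflects the gate of origin.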

Sequence	polyreactivity (PSR sort gate)
QVQLVESGGGLVQAGGSLRLSCAASGFIFGVYAMGWYRQAPGKERELVAAITGRAASTYYADSVKGRFTISRDNAKNTVYLQMNSLKPEDTAVYYCAARKRYRPGERYEYWGQGTQVTVSS	high polyreactivity
QVQLVESGGGLVQAGGSLRLSCAASGFIFGVYAMGWYRQAPGKERELVARITYGGGSTYYADSVKGRFTISRDNAKNTVYLQMNSLKPEDTAVYYCAAASWSYPYYYWGQGTQVTVSS	high polyreactivity
QVQLVESGGGLVQAGGSLRLSCAASGFIFGVYAMGWYRQAPGNERELVAAISGSGGTTYYADSVKGRFTISRDNAKNTVYLQMNSQKPEDTAVYYCNAAYRVRYIVNYDYWGQGTQVTVSS	low polyreactivity
QVQLVESGGGLVQAGGSLRLSCAASGFIFGVYDMGWYRQAPGKERELVAAIDSVGSTYYADSVKGRFTISRDNAKNTVYFQMNSLKPEDTAGYYCNAARSRLYYVKYYYWGQGTQVTVSS	low polyreactivity
QVQLVESGGGLVQAGGSLRLSCAASGFIFGWNAMGWYRQAPGKEREFVAAITSSGTSTYYADSVKGRFTISRDNAKNTVYLQMNSLKPEDTAVYYCAADVIFNWLAYSTEYDYWGQGTQVTVSS	low polyreactivity
QVQLVESGGGLVQAGGSLRLSCAASGFIFGWNAMGWYRQAPGKERELVAGISRGGRTYYADSVKGRFTISRDNAKNTVYLQMNSLKPEDTAVYYCNKRLYSSSAVDAYGYWGQGTQVTVSS	high polyreactivity
QVQLVESGGGLVQAGGSLRLSCAASGFIFGYNAMGWYRQAPGKERELVAAITRSGGRTYYADSVKGRFTISRDNAKNTVYLQMNSLKPEDTSVYYCAASRFATYPRWYDYWGQGTQVTVSS	low polyreactivity
QVQLVESGGGLVQAGGSLRLSCAASGFIFGYNAMGWYRQAPGKERELVAAITWIGGTTYYADSVKGRFTISRDNAKNTVYLQMNSLKPEDTAVYYCARQRSYGRSSYSYGYDYWVQGTQVTVSS	high polyreactivity
QVQLVESGGGLVQAGGSLRLSCAASGFIFGYYAMGCYTQAPGKERELVARSTSSGGSTYYADSVKGRFTISRDNAKTTVYLQMNSLKPEDTAVYYCAKSPRAPRYMPYGYWGQGSQVTVSS	high polyreactivity
QVQLVESGGGLVQAGGSLRLSCAASGFIFGYYAMGWYRQAPGKEREFVAAITKRGGRTYYADSVKGRFTISRDNAKNTVYLQMNSLKPEDTAVYYCNKAIRQDRWVQEEDYWGQGTQVTVSS	high polyreactivity
QVQLVESGGGLVQAGGSLRLSCAASGFIFGYYAMGWYRQAPGKERELVAAISGDAGRTYYADSVKGRFTISRDNAKNTVYLQMNSLKPEDTAVYYCADADTYKMDYWGQGTQVTVSS	low polyreactivity
QVQLVESGGGLVQAGGSLRLSCAASGFIFGYYAMGWYRQAPGKERELVAAISKIGDSTYYADSVKGRFTISRDNAKNTVYLQMNSLKPEDTAVYYCNKVVRNYPRLYGHWGQGTQVTVSS	high polyreactivity
QVQLVESGGGLVQAGGSLRLSCAASGFIFGYYAMGWYRQAPGKERELVAAISSRGGSTYYADSVKGRFTISRDNAKNTVYLQMNSLKPEDTAVYYCAVRRVSFRHKFGQYDYWGQGTQVTVSS	high polyreactivity
QVQLVESGGGLVQAGGSLRLSCAASGFIFGYYTMGWYRQAPGKERELVAGISYSGGSTYYADSVKGRFTISRDNAKNTVYLQMNSLKPEDTAVYYCNRADYRASYSGQGSYDYWGQGTQVTVSS	high polyreactivity
QVQLVESGGGLVQAGGSLRLSCAASGFIFIAYAMGWYRQAPGKERELVAAISKSGGNTYYADSVKGRFTISRDNAKNTVYLQMNSLKPEDTAVYYCATRPGYWRYEYWGQGTQVTVSS	high polyreactivity
QVQLVESGGGLVQAGGSLRLSCAASGFIFIYNAMGWFRQAPGKERELVAAISRTGARTYYADSVKGRFTISRDNAKNTVYLQMNSLKPEDTAVYYCAGGVRTRTEEYDYWGQGTKVTVSS	high polyreactivity
QVQLVESGGGLVQAGGSLRLSCAASGFIFIYNVMGWYRPAPGKERELVAAINRGGSTKYADSVKGRFTISRDNAKNTVYLQMNSLKPEDTAVYYCAARYDGSRYHYDGYDYWGQGTQVTVSS	low polyreactivity
QVQLVESGGGLVQAGGSLRLSCAASGFIFKAYAMGWYRHAPGKERELVAAITSSGGRTYDADSVKGRFTISRDNAKNTVYLQKNSLKPEDTAVYYCNARGVLRTSLYRYDYWGQGTQVTVSS	high polyreactivity
QVQLVESGGGLVQAGGSLRLSCAASGFIFKGYAMGWYRQSPGKERELVAVISTSGDRTYYADSVKGRFTISRDNAKNTVYLQMNSLKPEDTAVYYCAAKASPYGGRQKGYDYWGQGTQVTVSS	high polyreactivity
QVQLVESGGGLVQAGGSLRLSCAASGFIFKRYAMGWYRQAPGKERELVAAITSGGSTHYADSVKGRFTISRDNAKNTVYLQMNSLKPEDTAVYYCAAVPRVNWSRYVYFWYDYWGQGTQVTVSS	high polyreactivity
QVQLVESGGGLVQAGGSLRLSCAASGFIFKTYAMGWYRQAPGKERELVATITRRGGRTYYADSVKGRFTISRDNAKNTVYLQMNSLKPEDTAVYDCAADYALSSLPFDYWGQGTQVTVSS	high polyreactivity
QVQLVESGGGLVQAGGSLRLSCAASGFIFKVNAMGWYRQAPGKERELFAAISRRGVTTYYADSVKGRFTISRDNAKNTVYLQMNSLKPEDTAVYYCNRARSYGDTDKLAILADDYWGQGTKVTVSS	high polyreactivity
